Measurements as given in IntAct's records for PubMed 20371349.

B1: Catenin delta-1 (Homo sapiens), O60716-29 (parent)
chain: MIGEEVPSDQYYWAPLAQHERGSLASLDSLRKGGPPPPNWRQPELPEVIAMLGFRLDAVKSNAAAYLQHLCYRNDKVKTDVRKLKGIPVLVGLLDHPKKEVHLGACGALKNISFGRDQDNKIAIKNCDGVPALVRLLRKARDMDLTEVITGTLWNLSSHDSIKMEIVDHALHALTDEVIIPHSGWEREPNEDCKPRHIEWESVLTNTAGCLRNVSSERSEARRKLRECDGLVDALIFIVQAEIGQKDSDSKLVENCVCLLRNLSYQVHREIPQAERYQEAAPNVANNTGPHAASCFGAKKGKGKKPIEDPANDTVDFPKRTSPARGYELLFQPEVVRIYISLLKESKTPAILEASAGAIQNLCAGRWTYGRYIRSALRQEKALSAIADLLTNEHERVVKAASGALRNLAVDARNKELIGKHAIPNLVKNLPGGQQNSSWNFSEDTVISILNTINEVIAENLEAAKKLRETQGIEKLVLINKSGNRSEKEVRAAALVLQTIWGYKELRKPLEKEGWKKSDFQVNLNNASRSQSSHSYDDSTLPLIDRNQKSDKKPDREEIQMSNMGSNTKSLDNNYSTPNERGDHNRTLDRSGDLGDMEPLKGTTPLMQKI
B2: Catenin delta-1 (Homo sapiens), O60716-5 (parent)
chain: MDDSEVESTASILASVKEQEAQFEKLTRALEEERRHVSAQLERVRVSPQDANPLMANGTLTRRHQNGRFVGDADLERQKFSDLKLNGPQDHSHLLYSTIPRMQEPGQIVETYTEEDPEGAMSVVSVETSDDGTTRRTETTVKKVVKTVTTRTVQPVAMGPDGLPVDASSVSNNYIQTLGRDFRKNGNGGPGPYVGQAGTATLPRNFHYPPDGYSRHYEDGYPGGSDNYGSLSRVTRIEERYRPSMEGYRAPSRQDVYGPQPQVRVGGSSVDLHRFHPEPYGLEDDQRSMGYDDLDYGMMSDYGTARRTGTPSDPRRRLRSYEDMIGEEVPSDQYYWAPLAQHERGSLASLDSLRKGGPPPPNWRQPELPEVIAMLGFRLDAVKSNAAAYLQHLCYRNDKVKTDVRKLKGIPVLVGLLDHPKKEVHLGACGALKNISFGRDQDNKIAIKNCDGVPALVRLLRKARDMDLTEVITGTLWNLSSHDSIKMEIVDHALHALTDEVIIPHSGWEREPNEDCKPRHIEWESVLTNTAGCLRNVSSERSEARRKLRECDGLVDALIFIVQAEIGQKDSDSKLVENCVCLLRNLSYQVHREIPQAERYQEAAPNVANNTGPHAASCFGAKKGKGKKPIEDPANDTVDFPKRTSPARGYELLFQPEVVRIYISLLKESKTPAILEASAGAIQNLCAGRWTYGRYIRSALRQEKALSAIADLLTNEHERVVKAASGALRNLAVDARNKELIGKHAIPNLVKNLPGGQQNSSWNFSEDTVISILNTINEVIAENLEAAKKLRETQGIEKLVLINKSGNRSEKEVRAAALVLQTIWGYKELRKPLEKEGWKKSDFQVNLNNASRSQSSHSYDDSTLPLIDRNQKSDKKPDREEIQMSNMGSNTKSLDNNYSTPNERGDHNRTLDRSGDLGDMEPLKGTTPLMQKI

Variants of: B1
Conditions: with cadh1_mouse Cdh1, P09803
cadh1_mouse Cdh1, P09803, sequence (P09803 whole entry): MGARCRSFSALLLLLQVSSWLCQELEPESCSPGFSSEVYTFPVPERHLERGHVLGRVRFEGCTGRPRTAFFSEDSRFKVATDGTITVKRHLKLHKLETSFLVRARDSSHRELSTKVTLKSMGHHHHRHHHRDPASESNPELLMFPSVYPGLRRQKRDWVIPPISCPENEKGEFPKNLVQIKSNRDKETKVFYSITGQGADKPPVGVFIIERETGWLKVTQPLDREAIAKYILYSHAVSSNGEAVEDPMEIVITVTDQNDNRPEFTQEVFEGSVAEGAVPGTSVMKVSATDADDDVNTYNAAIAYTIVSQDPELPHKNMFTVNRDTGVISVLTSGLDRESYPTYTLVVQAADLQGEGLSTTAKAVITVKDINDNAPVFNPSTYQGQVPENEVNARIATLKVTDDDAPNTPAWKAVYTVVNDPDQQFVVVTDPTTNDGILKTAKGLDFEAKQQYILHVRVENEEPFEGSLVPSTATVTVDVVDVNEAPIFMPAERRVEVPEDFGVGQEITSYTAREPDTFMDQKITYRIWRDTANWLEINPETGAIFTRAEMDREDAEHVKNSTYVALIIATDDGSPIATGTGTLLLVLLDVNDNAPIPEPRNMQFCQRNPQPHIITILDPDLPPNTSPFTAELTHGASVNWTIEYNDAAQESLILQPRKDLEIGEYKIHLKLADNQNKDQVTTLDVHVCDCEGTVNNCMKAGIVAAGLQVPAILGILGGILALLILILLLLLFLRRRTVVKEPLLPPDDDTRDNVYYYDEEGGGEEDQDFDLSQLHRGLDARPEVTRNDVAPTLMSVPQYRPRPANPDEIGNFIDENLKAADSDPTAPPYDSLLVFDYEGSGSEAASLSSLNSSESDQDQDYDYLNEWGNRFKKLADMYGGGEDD

Variant | effect of a mutation on the interaction
K78M | disrupting interaction
K121M | disrupting interaction
N155A | disrupting interaction
W154A | decreasing interaction

Variants of: B2
Conditions: with cadh1_human CDH1, P12830
cadh1_human CDH1, P12830, sequence (P12830 whole entry): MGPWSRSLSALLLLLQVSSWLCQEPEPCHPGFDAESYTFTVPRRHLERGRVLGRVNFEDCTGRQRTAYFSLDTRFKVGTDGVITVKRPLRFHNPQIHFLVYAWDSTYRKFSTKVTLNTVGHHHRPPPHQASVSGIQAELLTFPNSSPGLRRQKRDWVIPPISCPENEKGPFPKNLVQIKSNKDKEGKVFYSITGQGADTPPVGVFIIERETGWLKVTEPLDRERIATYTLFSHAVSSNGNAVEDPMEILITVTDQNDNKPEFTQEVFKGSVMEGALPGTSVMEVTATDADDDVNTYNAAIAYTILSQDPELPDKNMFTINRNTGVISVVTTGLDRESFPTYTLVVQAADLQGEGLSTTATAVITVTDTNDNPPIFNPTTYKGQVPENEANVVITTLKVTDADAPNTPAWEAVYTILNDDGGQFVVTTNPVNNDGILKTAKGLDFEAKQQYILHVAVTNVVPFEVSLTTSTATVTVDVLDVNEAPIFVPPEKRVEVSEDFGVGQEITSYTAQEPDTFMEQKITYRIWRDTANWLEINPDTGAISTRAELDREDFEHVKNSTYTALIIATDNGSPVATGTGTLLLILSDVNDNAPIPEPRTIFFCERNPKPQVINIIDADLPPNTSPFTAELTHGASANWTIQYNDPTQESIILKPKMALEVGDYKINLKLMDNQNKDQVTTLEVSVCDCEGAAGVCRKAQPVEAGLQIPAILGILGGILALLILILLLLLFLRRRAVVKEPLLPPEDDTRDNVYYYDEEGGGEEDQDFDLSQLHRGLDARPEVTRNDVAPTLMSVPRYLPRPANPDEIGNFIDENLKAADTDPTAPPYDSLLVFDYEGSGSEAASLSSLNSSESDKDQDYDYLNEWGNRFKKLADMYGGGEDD

Variant | effect of a mutation on the interaction
K401M | decreasing interaction
N478A | decreasing interaction
